Data taken from paper PMC12669767.
Where a chain is given by its changes, count along the chain named. Each block holds one binder with its values, some of them ahead of it.

Target: WWP1, endogenous in HEK293T, Q9H0M0
Assay: co-immunoprecipitation of ALFA-TXNIP, label-free quantitative interactome (mass spectrometry)
Conditions: chain shown with the change, immunoprecipitated from HEK293T cells, n = 3, read off a plot; for response (normalized abundance): abundances normalized to unspecific background binding to empty beads, scatter plot

- response (normalized abundance) (parent: est. 3.2e8): 8.5e+07
- other: log2 PPxY331/WT: -1.5 log2
B1: ALFA-tagged TXNIP (thioredoxin interacting protein), expressed in HEK293T, Q9H3M7 PPCY331AACA (protein)
chain: MVMFKKIKSFEVVFNDPEKVYGSGEKVAGRVIVEVCEVTRVKAVRILACGVAKVLWMQGSQQCKQTSEYLRYEDTLLLEDQPTGENEMVIMRPGNKYEYKFGFELPQGPLGTSFKGKYGCVDYWVKAFLDRPSQPTQETKKNFEVVDLVDVNTPDLMAPVSAKKEKKVSCMFIPDGRVSVSARIDRKGFCEGDEISIHADFENTCSRIVVPKAAIVARHTYLANGQTKVLTQKLSSVRGNHIISGTCASWRGKSLRVQKIRPSILGCNILRVEYSLLIYVSVPGSKKVILDLPLVIGSRSGLSSRTSSMASRTSSEMSWVDLNIPDTPEAAACAMDVIPEDHRLESPTTPLLDDMDGSQDSPIFMYAPEFKFMPPPTYTEVDPCILNNNVQ

- response (normalized abundance) (parent: est. 3.5e8): 1.6e+06
- other: log2 PPxY/WT (volcano plot): -3 log2
B2: ALFA-tagged TXNIP (thioredoxin interacting protein), expressed in HEK293T, Q9H3M7 PPCY331AACA; PPTY375AATA (protein)
chain: B1 chain with P375A, P376A, Y378A
